Test results published in patent US20240294595A1 (ARIZONA BOARD OF REGENTS ON BEHALF OF THE UNIVERSITY OF …, published 2024).
Where no end group is shown, it is not given here. [ ]: non-standard residue; d: D form. The star is where a group is joined. βGlc = OC[C@H]1O[C@@H](*)[C@H](O)[C@@H](O)[C@@H]1O; Nle = CCCC[C@H](N)C(=O)O

T1: VPAC1
T1 sequence (P32241 whole entry, species assumed, looked up): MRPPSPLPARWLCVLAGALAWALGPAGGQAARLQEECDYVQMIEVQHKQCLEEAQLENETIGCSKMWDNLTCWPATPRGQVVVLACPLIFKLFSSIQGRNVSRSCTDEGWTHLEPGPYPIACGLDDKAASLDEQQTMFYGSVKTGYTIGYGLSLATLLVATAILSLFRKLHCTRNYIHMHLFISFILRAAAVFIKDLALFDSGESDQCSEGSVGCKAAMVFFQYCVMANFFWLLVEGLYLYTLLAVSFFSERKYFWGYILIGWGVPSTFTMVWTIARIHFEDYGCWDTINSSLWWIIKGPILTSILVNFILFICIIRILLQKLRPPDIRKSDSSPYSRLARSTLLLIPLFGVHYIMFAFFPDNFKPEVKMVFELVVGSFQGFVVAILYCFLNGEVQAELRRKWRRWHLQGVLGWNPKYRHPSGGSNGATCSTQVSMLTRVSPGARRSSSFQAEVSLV

T2: VPAC2
T2 sequence (P41587 whole entry, species assumed, looked up): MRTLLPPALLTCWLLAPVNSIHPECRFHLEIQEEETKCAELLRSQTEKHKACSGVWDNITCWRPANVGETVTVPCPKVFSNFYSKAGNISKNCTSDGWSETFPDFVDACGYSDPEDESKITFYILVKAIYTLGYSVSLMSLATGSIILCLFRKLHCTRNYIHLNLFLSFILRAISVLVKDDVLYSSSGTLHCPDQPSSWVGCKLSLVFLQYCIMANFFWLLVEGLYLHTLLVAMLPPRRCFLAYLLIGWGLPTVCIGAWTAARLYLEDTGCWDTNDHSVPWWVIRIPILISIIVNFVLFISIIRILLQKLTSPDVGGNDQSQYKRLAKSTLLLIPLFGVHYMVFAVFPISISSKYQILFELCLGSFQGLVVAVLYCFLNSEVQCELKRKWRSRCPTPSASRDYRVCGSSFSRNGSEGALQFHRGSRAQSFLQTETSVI

B1: HsDGIFTDSYSRYRKQÑAVKKYLAAV-Ser(Glc) (peptide)
peptide: HSDGIFTDSYSRYRKQXAVKKYLAAVS
modifications: D-Serine at 2 (s); L-Nor-Leucine at 17 (Ñ, written X in letters); Ser 27 = L-Ser(β-D-Glc)
B2: HsDGIFTDSYSRYRKQÑAVKKYLAAVL-Ser(Glc) (peptide)
peptide: HSDGIFTDSYSRYRKQXAVKKYLAAVLS
modifications: D-Serine at 2 (s); L-Nor-Leucine at 17 (Ñ, written X in letters); Ser 28 = L-Ser(β-D-Glc)
B3: HsDGIFADSYSRYRKQÑAVKKYLAAVL-Ser(Glc) (peptide)
peptide: HSDGIFADSYSRYRKQXAVKKYLAAVLS
modifications: D-Serine at 2 (s); L-Nor-Leucine at 17 (Ñ, written X in letters); Ser 28 = L-Ser(β-D-Glc)
B4: HsDGIFADSYSRYRKQÑAVKKYLAAV-Ser(Glc) (peptide)
peptide: HSDGIFADSYSRYRKQXAVKKYLAAVS
modifications: D-Serine at 2 (s); L-Nor-Leucine at 17 (Ñ, written X in letters); Ser 27 = L-Ser(β-D-Glc)

These binders were tested against T1, VPAC1 (assay: cell-based or functional assay).

EC50 (agonist) [nM]	EMax (agonist) [%]	Binder
0.55	102	HSDGIFTDSYSRYRKQLAVKKYLAAVLS(melibiose)-NH2 [HSDGIFTDSYSRYRKQLAVKKYLAAVL-Ser(Mel)]
–	100	HSDGIFTDSYSRYRKQMAVKKYLAAVL (ends and bridges not checked) [PACAP1-27]
5.9	93	H[dS]DGIFTDSYSRYRKQ[Nle]AVKKYLAALS(βGlc)L-NH2 (ends and bridges not checked) [HsDGIFTDSYSRYRKQÑAVKKYLAAL-Ser(Glc)-L]
4.8	90	B1
1620	78	H[dS]DGIFADSYSRYRKQ[Nle]AVKKYLAAVS(βGlc)L-NH2 (ends and bridges not checked) [HsDGIFADSYSRYRKQÑAVKKYLAAV-Ser(Glc)-L]
1.3	90	B2
78.8	93	B3
1370	85	B4

What follows are binders tested against T2, VPAC2 (assay: cell-based or functional assay).

EC50 (agonist) [nM]	EMax (agonist) [%]	Binder
9.4	86	HSDGIFTDSYSRYRKQLAVKKYLAAVLS(melibiose)-NH2 [HSDGIFTDSYSRYRKQLAVKKYLAAVL-Ser(Mel)]
> 2500	-95	H[dS]DGIFTDSYSRYRKQ[Nle]AVKKYLAALS(βGlc)L-NH2 (ends and bridges not checked) [HsDGIFTDSYSRYRKQÑAVKKYLAAL-Ser(Glc)-L]
654	107	B1
241	104	B2
> 2500	-42	B3
